For the test, the target named is T1, mouse Sema 3A protein (mouse, UniProt O08665 21-772, limits assumed).
T1 construct: Produced from mouse Sema 3A protein expressing cells; also called Mouse Sema 3A antigen
T1 sequence (looked up): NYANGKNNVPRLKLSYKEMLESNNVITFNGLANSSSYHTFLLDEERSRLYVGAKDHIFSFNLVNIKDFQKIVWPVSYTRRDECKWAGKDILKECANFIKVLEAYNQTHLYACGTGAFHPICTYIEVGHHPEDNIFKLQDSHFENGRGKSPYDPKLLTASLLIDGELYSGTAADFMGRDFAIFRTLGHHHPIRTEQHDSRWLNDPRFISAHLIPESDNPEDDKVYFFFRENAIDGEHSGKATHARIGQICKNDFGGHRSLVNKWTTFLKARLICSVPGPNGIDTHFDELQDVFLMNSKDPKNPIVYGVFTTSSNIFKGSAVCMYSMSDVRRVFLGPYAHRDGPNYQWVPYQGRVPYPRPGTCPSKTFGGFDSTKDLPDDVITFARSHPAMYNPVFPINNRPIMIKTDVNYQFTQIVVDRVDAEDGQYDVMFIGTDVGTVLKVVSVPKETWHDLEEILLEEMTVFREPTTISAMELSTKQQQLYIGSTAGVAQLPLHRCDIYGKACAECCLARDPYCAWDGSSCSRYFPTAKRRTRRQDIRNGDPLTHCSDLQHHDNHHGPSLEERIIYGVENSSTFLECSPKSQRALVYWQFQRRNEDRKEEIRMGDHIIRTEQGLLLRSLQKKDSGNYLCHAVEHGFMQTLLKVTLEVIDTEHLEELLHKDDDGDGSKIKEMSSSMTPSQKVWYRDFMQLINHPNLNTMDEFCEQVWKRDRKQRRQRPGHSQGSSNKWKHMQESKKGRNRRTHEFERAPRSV
Nature of the test: direct solid phase ELISA screening with mouse Sema 3A as antigen. As to the method:
A direct solid phase ELISA was carried out according to the following process. In Day 6 after the step 2-2), 2.5 μg/mL of mouse Sema 3A protein was dispensed into a 384 well Maxisorp (Nunc) by 20 μL each and left to stand overnight. Ovalbumin (OA) and rabbit IgG (rIgG) were immobilized in the plate as negative controls in similar manner in order to examine the specificity of antibodies. On the next day, the content in the plate was removed and 45 μL of blocking solution (PBS buffer containing 1% BSA) was added thereto, followed by incubation at room temperature for one hour. The plate was washed five times with 120μL/well of ELISA washing buffer (PBS containing 0.05 wt % Tween 20), to which were added culture supernatants derived from the colony obtained by selection in the step 2-2) by 25 μL/well and then incubated at room temperature for one hour. The plate was washed five times with 120 μL/well of ELISA washing solution and then to which was added 25 μL of diluent in which a secondary antibody was diluted 2000 times with a blocking buffer and incubated at room temperature for 45 minutes. Anti-chicken IgM-HRP (Bethyl Laboratories, Inc.) was used as a secondary antibody. […] Subsequently, the reaction was quenched with 25 μL of 1N sulfuric acid to determine the absorbance at 450 nm.
(ELISA stands for enzyme-linked immunosorbent assay.)

Where a chain is given by its changes, count along the chain named.

B1: Anti-Sema 3A avian antibody (clone No. 240-40 strain-derived) (antibody, V domains shown)
VH: AVTLDESGGGLQTPGGALSLVCKASGFTFSSYDMNWVRQAPGKGLEWVAGIYSGSSTYYGAAVKGRATISRDNGQSTLRLQLNNLRAEDTGIYYCAKSAIPVNSAGSIDAWGHGTEVIVSS
VL: ALTQPASVSANPGETVKITCSGGGSYGGSYYYSWHQQKSPGSALVTVIYYNNKRPSDIPSRFSGSLSGSTNTLTITGVRADDEAVYFCGSADTSGTAFGAGTTLTVL
notes: Avian (chicken) IgM
As to B1, the binding result is “binds”.

B2: Anti-Sema 3A avian antibody (clone No. 255-72 strain-derived) (antibody, V domains shown)
VH: AVTLDESGGGLQTPGGALSLVCKASGFTFSSYEMQWVRQAPGKGLEWVAGIYSGSTWYGAAVKGRATISRDNGQSTVRLQLNNLRAEDTGTYYCAKSGIGFNSAGSIDAWGHGTEVIVSS
VL: B1 VL with T93N, T96S
notes: Avian (chicken) IgM
For the molecule B2, the binding result is on record as “binds”.
